From IntAct's records for PubMed 22398447

B1: Origin recognition complex subunit 1 (Homo sapiens), Q13415 (parent)
chain: MAHYPTRLKTRKTYSWVGRPLLDRKLHYQTYREMCVKTEGCSTEIHIQIGQFVLIEGDDDENPYVAKLLELFEDDSDPPPKKRARVQWFVRFCEVPACKRHLLGRKPGAQEIFWYDYPACDSNINAETIIGLVRVIPLAPKDVVPTNLKNEKTLFVKLSWNEKKFRPLSSELFAELNKPQESAAKCQKPVRAKSKSAESPSWTPAEHVAKRIESRHSASKSRQTPTHPLTPRARKRLELGNLGNPQMSQQTSCASLDSPGRIKRKVAFSEITSPSKRSQPDKLQTLSPALKAPEKTRETGLSYTEDDKKASPEHRIILRTRIAASKTIDIREERTLTPISGGQRSSVVPSVILKPENIKKRDAKEAKAQNEATSTPHRIRRKSSVLTMNRIRQQLRFLGNSKSDQEEKEILPAAEISDSSSDEEEASTPPLPRRAPRTVSRNLRSSLKSSLHTLTKVPKKSLKPRTPRCAAPQIRSRSLAAQEPASVLEEARLRLHVSAVPESLPCREQEFQDIYNFVESKLLDHTGGCMYISGVPGTGKTATVHEVIRCLQQAAQANDVPPFQYIEVNGMKLTEPHQVYVQILQKLTGQKATANHAAELLAKQFCTRGSPQETTVLLVDELDLLWTHKQDIMYNLFDWPTHKEARLVVLAIANTMDLPERIMMNRVSSRLGLTRMCFQPYTYSQLQQILRSRLKHLKAFEDDAIQLVARKVAALSGDARRCLDICRRATEICEFSQQKPDSPGLVTIAHSMEAVDEMFSSSYITAIKNSSVLEQSFLRAILAEFRRSGLEEATFQQIYSQHVALCRMEGLPYPTMSETMAVCSHLGSCRLLLVEPSRNDLLLRVRLNVSQDDVLYALKDE

Variants of: B1
Conditions: with h4_bovin h4, P62803

Variant	effect of a mutation on the interaction
Y64A	disrupting interaction strength
W88A	disrupting interaction strength
E94A	disrupting interaction strength
